Test results as given in patent US6881547B1, “Methods and reagents for treating autoimmune disorders” (priority 2001, dated 2005).

What was measured:
[1] = system: rGPΔIII
[2] = system: 27-kDa conformer of the native human α3(IV)NC1 domain
[3] = target: rMBP, recombinant 21 kDa human myelin basic protein (UniProt P02686)
[4] = system: rMBPΔII, recombinant 18.5 kDa human myelin basic protein
[5] = system: T1, FLAG-tagged recombinant GPBP (rGPBP)
T1 sequence: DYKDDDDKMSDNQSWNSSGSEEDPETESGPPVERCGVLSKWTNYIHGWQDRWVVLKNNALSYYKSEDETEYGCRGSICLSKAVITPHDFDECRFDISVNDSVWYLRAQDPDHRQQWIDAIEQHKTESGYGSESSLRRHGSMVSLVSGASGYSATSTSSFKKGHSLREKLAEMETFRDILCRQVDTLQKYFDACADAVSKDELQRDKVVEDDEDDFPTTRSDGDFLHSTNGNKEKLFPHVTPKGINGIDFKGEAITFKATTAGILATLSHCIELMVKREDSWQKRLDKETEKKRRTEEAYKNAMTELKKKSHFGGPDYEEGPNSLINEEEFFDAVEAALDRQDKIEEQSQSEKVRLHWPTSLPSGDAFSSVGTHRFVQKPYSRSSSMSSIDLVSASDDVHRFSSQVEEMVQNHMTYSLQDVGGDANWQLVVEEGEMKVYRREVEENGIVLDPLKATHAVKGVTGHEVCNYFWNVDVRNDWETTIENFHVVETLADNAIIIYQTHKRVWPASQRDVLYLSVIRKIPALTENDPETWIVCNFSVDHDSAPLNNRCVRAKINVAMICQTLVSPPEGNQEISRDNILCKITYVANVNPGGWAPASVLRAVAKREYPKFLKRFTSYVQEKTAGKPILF

[6] = system: 22-25-kDa conformers of the native human α3(IV)NC1 domain
[7] = system: rGPΔIII/IV/V
[8] = system: rGPΔV
[9] = system: prokaryotic human recombinant α3(IV)NC1
[10] = target: T2, rMBP, recombinant 21 kDa human myelin basic protein, P02686
T2 chain: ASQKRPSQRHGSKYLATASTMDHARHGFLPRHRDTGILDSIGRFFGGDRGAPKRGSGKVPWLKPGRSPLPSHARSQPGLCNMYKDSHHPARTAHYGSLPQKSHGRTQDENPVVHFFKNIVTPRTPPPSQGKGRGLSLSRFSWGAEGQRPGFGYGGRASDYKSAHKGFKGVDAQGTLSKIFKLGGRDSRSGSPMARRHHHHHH

[11] = target: T3, native bovine α3(IV)NC1 domain (bovine GP antigen), Q28084
T3 chain: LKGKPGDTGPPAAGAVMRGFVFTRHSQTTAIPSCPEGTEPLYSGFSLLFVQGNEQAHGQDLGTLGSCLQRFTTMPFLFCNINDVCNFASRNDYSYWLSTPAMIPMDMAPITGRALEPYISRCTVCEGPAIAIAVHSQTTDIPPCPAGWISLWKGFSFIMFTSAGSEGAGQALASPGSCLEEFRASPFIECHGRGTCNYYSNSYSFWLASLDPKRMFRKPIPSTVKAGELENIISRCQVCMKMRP

[12] = target: T4, Human recombinant GP antigen (rGP) produced in 293 cells
T4 chain: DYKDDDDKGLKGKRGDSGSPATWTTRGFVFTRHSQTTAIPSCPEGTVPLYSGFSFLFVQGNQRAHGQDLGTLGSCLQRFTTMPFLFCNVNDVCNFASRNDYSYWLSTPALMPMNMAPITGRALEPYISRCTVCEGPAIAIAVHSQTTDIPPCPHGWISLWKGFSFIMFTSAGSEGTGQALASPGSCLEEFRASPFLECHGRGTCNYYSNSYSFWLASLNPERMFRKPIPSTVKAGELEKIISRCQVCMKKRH

[13] = target: T5, alkaline phosphatase-treated fα3
T5 chain: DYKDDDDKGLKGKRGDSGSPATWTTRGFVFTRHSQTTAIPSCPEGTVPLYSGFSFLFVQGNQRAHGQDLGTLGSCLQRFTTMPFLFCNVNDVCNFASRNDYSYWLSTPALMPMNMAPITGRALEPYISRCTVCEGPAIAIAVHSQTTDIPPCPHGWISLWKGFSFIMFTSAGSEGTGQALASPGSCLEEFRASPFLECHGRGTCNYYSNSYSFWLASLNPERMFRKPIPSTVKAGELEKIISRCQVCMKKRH

[14] = target: T6, GPpep1Ala^9
T6 chain: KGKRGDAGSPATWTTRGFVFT

[15] = target: T7, rMBPΔII, recombinant 18.5 kDa human myelin basic protein
T7 chain: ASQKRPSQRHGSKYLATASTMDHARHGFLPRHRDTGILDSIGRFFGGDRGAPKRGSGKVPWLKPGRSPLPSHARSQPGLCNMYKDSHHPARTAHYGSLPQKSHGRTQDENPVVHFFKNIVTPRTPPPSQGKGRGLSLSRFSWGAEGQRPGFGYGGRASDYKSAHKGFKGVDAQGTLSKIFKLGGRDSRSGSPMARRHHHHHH

[16] = target: T8, prokaryotic human recombinant α3(IV)NC1
T8 chain: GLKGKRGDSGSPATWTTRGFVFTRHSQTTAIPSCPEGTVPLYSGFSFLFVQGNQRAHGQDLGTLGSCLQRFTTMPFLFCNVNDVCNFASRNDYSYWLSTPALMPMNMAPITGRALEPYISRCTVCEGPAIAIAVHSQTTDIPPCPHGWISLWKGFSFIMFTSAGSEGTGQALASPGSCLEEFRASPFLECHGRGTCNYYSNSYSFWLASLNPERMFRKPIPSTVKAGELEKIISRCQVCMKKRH

[17] = target: T9, native human α3(IV)NC1 domain (GP antigen) from renal cortex, monomer fraction of the hexamer
T9 chain: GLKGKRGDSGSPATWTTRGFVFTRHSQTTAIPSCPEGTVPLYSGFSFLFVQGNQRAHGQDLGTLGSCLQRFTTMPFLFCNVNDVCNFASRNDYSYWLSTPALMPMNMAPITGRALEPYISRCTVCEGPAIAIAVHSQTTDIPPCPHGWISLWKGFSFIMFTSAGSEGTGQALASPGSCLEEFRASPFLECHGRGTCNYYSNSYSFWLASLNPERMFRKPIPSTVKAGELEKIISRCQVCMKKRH

[18] = target: T10, GPpep1
T10 chain: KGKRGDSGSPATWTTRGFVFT

[19] = target: T11, FLAG-tagged recombinant GPBP (rGPBP) (human, UniProt Q9Y5P4 1-624, phosphoserine, phosphothreonine and phosphotyrosine present, sites not given); assay: far-Western on in-blot renatured human monomers, 30 ng/µl recombinant GPBP, Mab14 detection
T11 construct: Made in Pichia pastoris or 293 cells; also called FLAG-n4′
T11 sequence: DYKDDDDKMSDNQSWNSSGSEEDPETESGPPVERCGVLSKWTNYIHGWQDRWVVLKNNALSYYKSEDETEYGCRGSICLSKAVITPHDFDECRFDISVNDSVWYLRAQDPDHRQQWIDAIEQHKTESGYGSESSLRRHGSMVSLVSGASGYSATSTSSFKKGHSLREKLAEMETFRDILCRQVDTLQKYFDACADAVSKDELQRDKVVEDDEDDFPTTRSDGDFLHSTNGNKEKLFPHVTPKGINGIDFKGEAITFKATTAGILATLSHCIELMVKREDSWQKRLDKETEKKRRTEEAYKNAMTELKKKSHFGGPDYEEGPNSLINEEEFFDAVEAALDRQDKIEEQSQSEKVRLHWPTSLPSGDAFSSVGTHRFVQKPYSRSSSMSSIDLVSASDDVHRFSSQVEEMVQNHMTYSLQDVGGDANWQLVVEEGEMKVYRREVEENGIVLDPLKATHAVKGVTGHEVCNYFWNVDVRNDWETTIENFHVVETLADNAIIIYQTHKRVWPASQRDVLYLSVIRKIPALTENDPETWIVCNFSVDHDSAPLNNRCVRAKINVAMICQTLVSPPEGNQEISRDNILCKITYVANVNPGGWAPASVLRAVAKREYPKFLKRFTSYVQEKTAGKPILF
Experimental: Physical, chemical and immunochemical methods. Lnunoblot studies were performed as described in Example 4. For far-Western, after protein transfer the membrane was blocked with non-fat milk, incubated with 30 ng/μl of fα3 or recombinant GPBP and the bound recombinant material detected with α-FLAG or Mab14, respectively.

[20] = target: T12, β-galactosidase-derived fusion protein of clone HeLa1 containing the N-terminal 150 residues of GPBP (human, UniProt Q5R6M6 1-150 (Pongo abelii entry)); assay: filter screen of λ-gt11 expression libraries with GPpep1, detected with M3/1A
T12 construct: also called HeLa1 fusion protein; not shown: β-galactosidase part of the λ-gt11 fusion
T12 sequence: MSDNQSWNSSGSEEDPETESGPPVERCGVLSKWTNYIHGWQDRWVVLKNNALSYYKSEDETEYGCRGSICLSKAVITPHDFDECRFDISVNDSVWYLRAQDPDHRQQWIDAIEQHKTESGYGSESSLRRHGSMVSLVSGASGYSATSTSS
Experimental: Isolation and characterization of cDNA clones encoding human GPBP-Several human λ-gt11 cDNA expression libraries (eye, fetal and adult lung, kidney and HeLa S3, from CLONTECH) were probed for cDNAs encoding proteins interacting with GPpep1. Nitrocellulose filters (Millipore) prepared following standard immunoscreening procedures were blocked and incubated with 1–10 nmoles per ml of GPpep1 at 37° C. Specifically bound GPpep1 was detected using M3/1A monoclonal antibodies (7). A single clone was identified in the HeLa-derived library (HeLa1). Specificity of fusion protein binding was confirmed by similar binding to recombinant eukaryotic human GP antigen. The EcoRI cDNA insert of HeLa1 (0.5-kb) was used to further screen the same library and to isolate overlapping cDNAs. The largest cDNA (2.4-kb) containing the entire cDNA of HeLa1 (n4') was fully sequenced.

Chain of rGPΔIII/IV/V (chain, as listed by the source mutant): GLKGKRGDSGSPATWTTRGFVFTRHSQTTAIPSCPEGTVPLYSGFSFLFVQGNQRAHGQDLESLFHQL
Chain of rGPΔV (chain, as listed by the source mutant): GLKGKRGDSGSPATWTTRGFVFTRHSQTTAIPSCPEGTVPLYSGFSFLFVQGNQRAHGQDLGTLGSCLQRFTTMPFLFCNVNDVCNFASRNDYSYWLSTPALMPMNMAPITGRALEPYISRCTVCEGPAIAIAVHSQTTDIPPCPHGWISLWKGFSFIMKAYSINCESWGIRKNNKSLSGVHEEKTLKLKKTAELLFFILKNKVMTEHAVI
Chain of rGPΔIII (chain, as listed by the source mutant): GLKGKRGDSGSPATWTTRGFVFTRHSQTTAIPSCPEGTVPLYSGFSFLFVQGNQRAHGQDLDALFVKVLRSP

## catalytic subunit of the cAMP-dependent protein kinase
[1]
  ^32P incorporation, phosphorylation by PKA: The alternative forms incorporated ^32P more efficiently than the primary GP antigen
[2]
  ^32P incorporation, phosphorylation by PKA: At 150 mM ATP, the major ^32P incorporation occurred in the 27-kDa conformer
[3]
  in vitro phosphorylation by PKA: MBPΔII was a better substrate than MBP, and Ser^8 was the major phosphorylation site
[4]
  in vitro phosphorylation by PKA: MBPΔII was a better substrate than MBP, and Ser^8 was the major phosphorylation site
[5]
  in vitro phosphorylation: Bovine cPKA phosphorylates GPBP in vitro (not shown)
[6]
  ^32P incorporation, phosphorylation by PKA: when the ATP concentration was lowered to extracellular-like concentrations (0.15 mM), the 22-kDa conformer was preferentially labeled
[7]
  ^32P incorporation, phosphorylation by PKA: The alternative forms incorporated ^32P more efficiently than the primary GP antigen
[8]
  ^32P incorporation, phosphorylation by PKA: The alternative forms incorporated ^32P more efficiently than the primary GP antigen
[9]
  ^32P incorporation, phosphorylation by PKA: all four recombinant antigens were phosphorylated but to very different extents

B1: FLAG-tagged recombinant GPBP (rGPBP) (protein)
chain: DYKDDDDKMSDNQSWNSSGSEEDPETESGPPVERCGVLSKWTNYIHGWQDRWVVLKNNALSYYKSEDETEYGCRGSICLSKAVITPHDFDECRFDISVNDSVWYLRAQDPDHRQQWIDAIEQHKTESGYGSESSLRRHGSMVSLVSGASGYSATSTSSFKKGHSLREKLAEMETFRDILCRQVDTLQKYFDACADAVSKDELQRDKVVEDDEDDFPTTRSDGDFLHSTNGNKEKLFPHVTPKGINGIDFKGEAITFKATTAGILATLSHCIELMVKREDSWQKRLDKETEKKRRTEEAYKNAMTELKKKSHFGGPDYEEGPNSLINEEEFFDAVEAALDRQDKIEEQSQSEKVRLHWPTSLPSGDAFSSVGTHRFVQKPYSRSSSMSSIDLVSASDDVHRFSSQVEEMVQNHMTYSLQDVGGDANWQLVVEEGEMKVYRREVEENGIVLDPLKATHAVKGVTGHEVCNYFWNVDVRNDWETTIENFHVVETLADNAIIIYQTHKRVWPASQRDVLYLSVIRKIPALTENDPETWIVCNFSVDHDSAPLNNRCVRAKINVAMICQTLVSPPEGNQEISRDNILCKITYVANVNPGGWAPASVLRAVAKREYPKFLKRFTSYVQEKTAGKPILF
[10]
  ^32P incorporation, in situ phosphorylation on blot: GPBP preferentially phosphorylated MBP
[11]
  ^32P incorporation, in vitro phosphorylation: no appreciable ^32P-incorporation was observed in the bovine-derived substrate
  conformers and oligomers after DTT consumption, Western blot: during DTT consumption GPBP catalyzed specific conformational isomerization reactions over the 27-kDa conformer
[12]
  ^32P incorporation, in vitro phosphorylation: Affinity-purified rGPBP phosphorylates all human-derived material to a different extent
[13]
  monomeric Mab3-reactive material after oligomerization assay: the addition of GPBP to the phosphatase-treated samples resulted in a further reduction in the levels of monomeric material reactive with Mab3
[14]
  ^32P incorporation, in vitro phosphorylation: The lower ^32P incorporation displayed by GPpep1Ala9 when compared with GPpep1
[15]
  ^32P incorporation, in situ phosphorylation on blot: little phosphorylation of MBPΔII was observed
[16]
  disruption of disulfide-based aggregates, Western blot: GPBP and, to a lesser extent GPBPΔ26 disrupted disulfide-based high molecular weight aggregates characteristic of recombinant material representing human α3(IV)NC1 produced in bacteria
[17]
  ^32P incorporation, in vitro phosphorylation: Affinity-purified rGPBP phosphorylates all human-derived material to a different extent
[18]
  ^32P incorporation, in vitro phosphorylation: Affinity-purified rGPBP phosphorylates all human-derived material to a different extent

B2: 22-25-kDa conformers of the native human α3(IV)NC1 domain (other)
chain: GLKGKRGDSGSPATWTTRGFVFTRHSQTTAIPSCPEGTVPLYSGFSFLFVQGNQRAHGQDLGTLGSCLQRFTTMPFLFCNVNDVCNFASRNDYSYWLSTPALMPMNMAPITGRALEPYISRCTVCEGPAIAIAVHSQTTDIPPCPHGWISLWKGFSFIMFTSAGSEGTGQALASPGSCLEEFRASPFLECHGRGTCNYYSNSYSFWLASLNPERMFRKPIPSTVKAGELEKIISRCQVCMKKRH
modifications: phosphoserine, highest Ser(P) content among the conformers; sites not given
notes: also called 22-25-kDa polypeptides; 22-kDa conformer
[19]
  binding result: binds

B3: GPpep1 (peptide)
peptide: KGKRGDSGSPATWTTRGFVFT
[20]
  binding result: binds
